Laboratory results as given in US20140271457A1 (AbbVie / Abbott, published 2014).

B1: DVD3019 (bispecific antibody, IgG1)
VH: EVQLVQSGAEVKKPGASVKVSCKASGYTFNNYGIIWVRQAPGQGLEWMGWINTYTGKPTYAQKFQGRVTMTTDTSTSTAYMELSSLRSEDTAVYYCARKLFNTVAVTDNAMDYWGQGTTVTVSSASTKGPEVQLVQSGAEVKKPGASVKVSCKASGYTFTKYWLGWVRQAPGQGLEWMGDIYPGYDYTHYNEKFKDRVTLTTDTSTSTAYMELRSLRSDDTAVYYCARSDGSSTYWGQGTLVTVSS
VL: DIQMTQSPSSLSASVGDRVTITCRASQDIENYLNWYQQKPGKAPKLLIYYTSRLQSGVPSRFSGSGSGTDFTLTISSLQPEDFATYFCQQGNTQPPTFGQGTKLEIKRTVAAPDVLMTQTPLSLPVTPGEPASISCTSSQNIVHSNGNTYLEWYLQKPGQSPQLLIYKVSNRFSGVPDRFSGSGSGTDFTLKISRVEAEDVGVYYCFQVSHVPYTFGGGTKVEIKR
B2: DVD3021 (bispecific antibody, IgG1)
VH: B1 VH
VL: DIQMTQSPSSLSASVGDRVTITCRASQDIENYLNWYQQKPGKAPKLLIYYTSRLQSGVPSRFSGSGSGTDFTLTISSLQPEDFATYFCQQGNTQPPTFGQGTKLEIKRTVAAPSVFIFPPDVLMTQTPLSLPVTPGEPASISCTSSQNIVHSNGNTYLEWYLQKPGQSPQLLIYKVSNRFSGVPDRFSGSGSGTDFTLKISRVEAEDVGVYYCFQVSHVPYTFGGGTKVEIKR
B3: DVD3022 (bispecific antibody, IgG1)
VH: EVQLVQSGAEVKKPGASVKVSCKASGYTFNNYGIIWVRQAPGQGLEWMGWINTYTGKPTYAQKFQGRVTMTTDTSTSTAYMELSSLRSEDTAVYYCARKLFNTVAVTDNAMDYWGQGTTVTVSSASTKGPSVFPLAPEVQLVQSGAEVKKPGASVKVSCKASGYTFTKYWLGWVRQAPGQGLEWMGDIYPGYDYTHYNEKFKDRVTLTTDTSTSTAYMELRSLRSDDTAVYYCARSDGSSTYWGQGTLVTVSS
VL: B1 VL
B4: DVD3204 (bispecific antibody, IgG1)
VH: EVQLVESGGGLVQPGGSLRLSCAASGFTFSNYGVTWVRQAPGKGLEWVSMIWADGSTHYASSVKGRFTISRDNSKNTLYLQMNSLRAEDTAVYYCAREWQHGPVAYWGQGTLVTVSSASTKGPEVQLVESGGGLVQPGGSLRLSCAASGFSFSKYWLGWVRQAPGKGLEWVSDIYPGYDYTHYNEKFKDRFTISADTSKNTAYLQMNSLRAEDTAVYYCARSDGSSTYWGQGTLVTVSS
VL: DIQMTQSPSSLSASVGDRVTITCRASQLVSSAVAWYQQKPGKAPKLLIYWASARHTGVPSRFSGSGSGTDFTLTISSLQPEDFATYYCQQHYKTPFTFGQGTKLEIKRTVAAPDIQMTQSPSSLSASVGDRVTITCTSSQNIVHSNGNTYLEWYQQKPGKAPKLLIYKVSNRFSGVPSRFSGSGSGTDFTLTISSLQPEDFATYYCFQVSHVPYTFGQGTKVEIKR
B5: DVD3207 (bispecific antibody, IgG1)
VH: EVQLVESGGGLVQPGGSLRLSCAASGFTFSNYGVTWVRQAPGKGLEWVSMIWADGSTHYASSVKGRFTISRDNSKNTLYLQMNSLRAEDTAVYYCAREWQHGPVAYWGQGTLVTVSSASTKGPSVFPLAPEVQLVESGGGLVQPGGSLRLSCAASGFSFSKYWLGWVRQAPGKGLEWVSDIYPGYDYTHYNEKFKDRFTISADTSKNTAYLQMNSLRAEDTAVYYCARSDGSSTYWGQGTLVTVSS
VL: B4 VL
B6: DVD3206 (bispecific antibody, IgG1)
VH: B4 VH
VL: DIQMTQSPSSLSASVGDRVTITCRASQLVSSAVAWYQQKPGKAPKLLIYWASARHTGVPSRFSGSGSGTDFTLTISSLQPEDFATYYCQQHYKTPFTFGQGTKLEIKRTVAAPSVFIFPPDIQMTQSPSSLSASVGDRVTITCTSSQNIVHSNGNTYLEWYQQKPGKAPKLLIYKVSNRFSGVPSRFSGSGSGTDFTLTISSLQPEDFATYYCFQVSHVPYTFGQGTKVEIKR
B7: DVD3023 (bispecific antibody, IgG1)
VH: EVQLVQSGAEVKKPGASVKVSCKASGYTFTKYWLGWVRQAPGQGLEWMGDIYPGYDYTHYNEKFKDRVTLTTDTSTSTAYMELRSLRSDDTAVYYCARSDGSSTYWGQGTLVTVSSGGGGSGGGGSEVQLVQSGAEVKKPGASVKVSCKASGYTFNNYGIIWVRQAPGQGLEWMGWINTYTGKPTYAQKFQGRVTMTTDTSTSTAYMELSSLRSEDTAVYYCARKLFNTVAVTDNAMDYWGQGTTVTVSS
VL: DVLMTQTPLSLPVTPGEPASISCTSSQNIVHSNGNTYLEWYLQKPGQSPQLLIYKVSNRFSGVPDRFSGSGSGTDFTLKISRVEAEDVGVYYCFQVSHVPYTFGGGTKVEIKRGGSGGGGSGDIQMTQSPSSLSASVGDRVTITCRASQDIENYLNWYQQKPGKAPKLLIYYTSRLQSGVPSRFSGSGSGTDFTLTISSLQPEDFATYFCQQGNTQPPTFGQGTKLEIKR
B8: DVD3203 (bispecific antibody, IgG1)
VH: EVQLVESGGGLVQPGGSLRLSCAASGFTFSNYGVTWVRQAPGKGLEWVSMIWADGSTHYASSVKGRFTISRDNSKNTLYLQMNSLRAEDTAVYYCAREWQHGPVAYWGQGTLVTVSSGGGGSGGGGSEVQLVESGGGLVQPGGSLRLSCAASGFSFSKYWLGWVRQAPGKGLEWVSDIYPGYDYTHYNEKFKDRFTISADTSKNTAYLQMNSLRAEDTAVYYCARSDGSSTYWGQGTLVTVSS
VL: DIQMTQSPSSLSASVGDRVTITCRASQLVSSAVAWYQQKPGKAPKLLIYWASARHTGVPSRFSGSGSGTDFTLTISSLQPEDFATYYCQQHYKTPFTFGQGTKLEIKRGGSGGGGSGDIQMTQSPSSLSASVGDRVTITCTSSQNIVHSNGNTYLEWYQQKPGKAPKLLIYKVSNRFSGVPSRFSGSGSGTDFTLTISSLQPEDFATYYCFQVSHVPYTFGQGTKVEIKR
B9: DVD3024 (bispecific antibody, IgG1)
VH: EVQLVQSGAEVKKPGASVKVSCKASGYTFTKYWLGWVRQAPGQGLEWMGDIYPGYDYTHYNEKFKDRVTLTTDTSTSTAYMELRSLRSDDTAVYYCARSDGSSTYWGQGTLVTVSSASTKGPEVQLVQSGAEVKKPGASVKVSCKASGYTFNNYGIIWVRQAPGQGLEWMGWINTYTGKPTYAQKFQGRVTMTTDTSTSTAYMELSSLRSEDTAVYYCARKLFNTVAVTDNAMDYWGQGTTVTVSS
VL: DVLMTQTPLSLPVTPGEPASISCTSSQNIVHSNGNTYLEWYLQKPGQSPQLLIYKVSNRFSGVPDRFSGSGSGTDFTLKISRVEAEDVGVYYCFQVSHVPYTFGGGTKVEIKRTVAAPDIQMTQSPSSLSASVGDRVTITCRASQDIENYLNWYQQKPGKAPKLLIYYTSRLQSGVPSRFSGSGSGTDFTLTISSLQPEDFATYFCQQGNTQPPTFGQGTKLEIKR
B10: DVD3026 (bispecific antibody, IgG1)
VH: B9 VH
VL: DVLMTQTPLSLPVTPGEPASISCTSSQNIVHSNGNTYLEWYLQKPGQSPQLLIYKVSNRFSGVPDRFSGSGSGTDFTLKISRVEAEDVGVYYCFQVSHVPYTFGGGTKVEIKRTVAAPSVFIFPPDIQMTQSPSSLSASVGDRVTITCRASQDIENYLNWYQQKPGKAPKLLIYYTSRLQSGVPSRFSGSGSGTDFTLTISSLQPEDFATYFCQQGNTQPPTFGQGTKLEIKR
B11: DVD3027 (bispecific antibody, IgG1)
VH: EVQLVQSGAEVKKPGASVKVSCKASGYTFTKYWLGWVRQAPGQGLEWMGDIYPGYDYTHYNEKFKDRVTLTTDTSTSTAYMELRSLRSDDTAVYYCARSDGSSTYWGQGTLVTVSSASTKGPSVFPLAPEVQLVQSGAEVKKPGASVKVSCKASGYTFNNYGIIWVRQAPGQGLEWMGWINTYTGKPTYAQKFQGRVTMTTDTSTSTAYMELSSLRSEDTAVYYCARKLFNTVAVTDNAMDYWGQGTTVTVSS
VL: B9 VL
B12: DVD3208 (bispecific antibody, IgG1)
VH: EVQLVESGGGLVQPGGSLRLSCAASGFSFSKYWLGWVRQAPGKGLEWVSDIYPGYDYTHYNEKFKDRFTISADTSKNTAYLQMNSLRAEDTAVYYCARSDGSSTYWGQGTLVTVSSGGGGSGGGGSEVQLVESGGGLVQPGGSLRLSCAASGFTFSNYGVTWVRQAPGKGLEWVSMIWADGSTHYASSVKGRFTISRDNSKNTLYLQMNSLRAEDTAVYYCAREWQHGPVAYWGQGTLVTVSS
VL: DIQMTQSPSSLSASVGDRVTITCTSSQNIVHSNGNTYLEWYQQKPGKAPKLLIYKVSNRFSGVPSRFSGSGSGTDFTLTISSLQPEDFATYYCFQVSHVPYTFGQGTKVEIKRGGSGGGGSGDIQMTQSPSSLSASVGDRVTITCRASQLVSSAVAWYQQKPGKAPKLLIYWASARHTGVPSRFSGSGSGTDFTLTISSLQPEDFATYYCQQHYKTPFTFGQGTKLEIKR
B13: DVD3209 (bispecific antibody, IgG1)
VH: EVQLVESGGGLVQPGGSLRLSCAASGFSFSKYWLGWVRQAPGKGLEWVSDIYPGYDYTHYNEKFKDRFTISADTSKNTAYLQMNSLRAEDTAVYYCARSDGSSTYWGQGTLVTVSSASTKGPEVQLVESGGGLVQPGGSLRLSCAASGFTFSNYGVTWVRQAPGKGLEWVSMIWADGSTHYASSVKGRFTISRDNSKNTLYLQMNSLRAEDTAVYYCAREWQHGPVAYWGQGTLVTVSS
VL: DIQMTQSPSSLSASVGDRVTITCTSSQNIVHSNGNTYLEWYQQKPGKAPKLLIYKVSNRFSGVPSRFSGSGSGTDFTLTISSLQPEDFATYYCFQVSHVPYTFGQGTKVEIKRTVAAPDIQMTQSPSSLSASVGDRVTITCRASQLVSSAVAWYQQKPGKAPKLLIYWASARHTGVPSRFSGSGSGTDFTLTISSLQPEDFATYYCQQHYKTPFTFGQGTKLEIKR

What follows are binders tested against Recombinant Human TNF-α/TNFSF1A (human, UniProt P01375 77-233) (assay: cell-based or functional assay).
Recombinant Human TNF-α/TNFSF1A, sequence (P01375 77-233 limits assumed): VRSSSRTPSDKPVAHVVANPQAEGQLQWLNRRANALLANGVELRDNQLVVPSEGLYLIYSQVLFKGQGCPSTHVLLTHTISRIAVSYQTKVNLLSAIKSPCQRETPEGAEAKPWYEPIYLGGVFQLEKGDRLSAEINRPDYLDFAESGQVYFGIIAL

N-Terminal VD huTNFα Neutralization Assay IC50	C-Terminal VD huTNFα Neutralization Assay IC50	Binder
0.009 nM	–	B1
0.007 nM	–	B2
0.016 nM	–	B3
0.001 nM	–	B4
0.005 nM	–	B5
0.001 nM	–	B6
–	0.203 nM	B7
0.071 nM	–	B8
–	0.934 nM	B9
–	0.038 nM	B10
–	0.076 nM	B11
–	0.172 nM	B12
–	0.536 nM	B13
